B1: Use1 SNARE domain (aa 174-239) (domain or fragment)
chain: QRHQGLQEKLAEEMLGLARSLKTNTLAAQSVIKKDNQTLSHSLKMADQNLEKLKLESERLEQHAQK
B2: syntaxin 18 SNARE domain (aa 229-312) (domain or fragment)
chain: EEIQMFEQENQRLIGEMNSLFDEVRQIEGKVVEISRLQEIFTEKVLQQETEIDSIHQLVVGATENIKEGNEDIREAIKNNAGFR
B3: Sec20 SNARE domain (aa 133-198) (domain or fragment)
chain: QTSSSITESLMGISRMMSQQVQQSEEAMQTLVSSSRTLLDANEEFKSMSGTIQLGRKLITKYNRRE
B4: U_SNAP (Sec20, aa 133-198; Use1, aa 174-239) (other)
chain: QTSSSITESLMGISRMMSQQVQQSEEAMQTLVSSSRTLLDANEEFKSMSGTIQLGRKLITKYNRREGLSVSPSNKLKSSDAYKKAWGNNQDGVVASQPARVVDEREQMAISGGFIRRVTNDQRHQGLQEKLAEEMLGLARSLKTNTLAAQSVIKKDNQTLSHSLKMADQNLEKLKLESERLEQHAQK

Tests used:
[1] = molecular target: B2; experiment: SEC
[2] = molecular target: B3; experiment: SEC
[3] = molecular target: synaptobrevin 2 (aa 1-96) (Rattus norvegicus, UniProt P63045 1-96); experiment: native gel or EMSA
[4] = molecular target: B2; experiment: native gel or EMSA + SEC

synaptobrevin 2 (aa 1-96), sequence (P63045 1-96): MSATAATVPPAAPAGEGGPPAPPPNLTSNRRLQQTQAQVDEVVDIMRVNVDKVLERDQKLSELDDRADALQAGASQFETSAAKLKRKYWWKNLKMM

B1
binding result [1]: binds | binding result [2]: binds

B2
binding result [3]: binds

B3
binding result [1]: binds

B4
binding result [4]: binds

Source: publication doi:10.1101/2024.04.24.590896 (bioRxiv, 2024)
